Measurements taken from US20140294758A1 (published 2014).
Each block holds one molecule with its values, some of them ahead of it.

What was measured:
Assay in all cases: cell-based or functional assay
[1] = target: high affinity IL2 receptor on CTLL-2 mouse T cells (mouse) (UniProt P01590)
[2] = target: intermediate affinity IL2 receptor on TF-1β cells (UniProt P14784)
[3] = target: T1, intermediate affinity IL2 receptor on TF-1β cells (UniProt P14784 27-551; P31785 23-369)
T1 sequence (looked up) 1: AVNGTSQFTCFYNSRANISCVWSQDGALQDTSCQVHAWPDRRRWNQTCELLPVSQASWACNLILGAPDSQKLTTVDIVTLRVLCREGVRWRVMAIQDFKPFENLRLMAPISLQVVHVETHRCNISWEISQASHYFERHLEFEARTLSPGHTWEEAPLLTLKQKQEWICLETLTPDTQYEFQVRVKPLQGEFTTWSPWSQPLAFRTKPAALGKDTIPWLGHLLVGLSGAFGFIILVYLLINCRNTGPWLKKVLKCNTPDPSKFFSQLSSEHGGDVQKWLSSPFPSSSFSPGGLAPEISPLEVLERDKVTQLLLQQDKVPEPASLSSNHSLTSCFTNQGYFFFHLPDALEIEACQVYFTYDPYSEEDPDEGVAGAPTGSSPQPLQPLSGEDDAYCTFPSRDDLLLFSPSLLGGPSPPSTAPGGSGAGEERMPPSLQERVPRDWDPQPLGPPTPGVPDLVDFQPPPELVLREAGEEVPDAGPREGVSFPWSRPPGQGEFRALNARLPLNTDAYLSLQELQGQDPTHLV
T1 sequence (looked up) 2: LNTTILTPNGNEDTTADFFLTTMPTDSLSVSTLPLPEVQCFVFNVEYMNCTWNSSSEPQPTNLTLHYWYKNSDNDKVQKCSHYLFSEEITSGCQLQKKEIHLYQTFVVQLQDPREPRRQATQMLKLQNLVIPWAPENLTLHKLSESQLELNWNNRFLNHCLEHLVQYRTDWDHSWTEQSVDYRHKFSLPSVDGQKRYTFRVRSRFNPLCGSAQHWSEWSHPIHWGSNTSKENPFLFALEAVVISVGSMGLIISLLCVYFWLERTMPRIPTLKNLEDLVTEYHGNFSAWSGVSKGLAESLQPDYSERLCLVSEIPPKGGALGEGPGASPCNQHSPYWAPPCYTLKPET

[4] = target: T2, high affinity IL2 receptor on CTLL-2 mouse T cells (mouse, UniProt P01590 22-268; P16297 27-539; P34902 23-369)
T2 sequence (looked up) 1: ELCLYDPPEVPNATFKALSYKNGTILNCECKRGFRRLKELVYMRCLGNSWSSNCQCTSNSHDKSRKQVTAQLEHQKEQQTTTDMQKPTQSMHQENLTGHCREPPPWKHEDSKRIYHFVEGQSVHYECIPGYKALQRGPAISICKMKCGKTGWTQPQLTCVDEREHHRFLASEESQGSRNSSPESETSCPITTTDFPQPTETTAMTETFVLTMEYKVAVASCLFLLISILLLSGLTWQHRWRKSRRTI
T2 sequence (looked up) 2: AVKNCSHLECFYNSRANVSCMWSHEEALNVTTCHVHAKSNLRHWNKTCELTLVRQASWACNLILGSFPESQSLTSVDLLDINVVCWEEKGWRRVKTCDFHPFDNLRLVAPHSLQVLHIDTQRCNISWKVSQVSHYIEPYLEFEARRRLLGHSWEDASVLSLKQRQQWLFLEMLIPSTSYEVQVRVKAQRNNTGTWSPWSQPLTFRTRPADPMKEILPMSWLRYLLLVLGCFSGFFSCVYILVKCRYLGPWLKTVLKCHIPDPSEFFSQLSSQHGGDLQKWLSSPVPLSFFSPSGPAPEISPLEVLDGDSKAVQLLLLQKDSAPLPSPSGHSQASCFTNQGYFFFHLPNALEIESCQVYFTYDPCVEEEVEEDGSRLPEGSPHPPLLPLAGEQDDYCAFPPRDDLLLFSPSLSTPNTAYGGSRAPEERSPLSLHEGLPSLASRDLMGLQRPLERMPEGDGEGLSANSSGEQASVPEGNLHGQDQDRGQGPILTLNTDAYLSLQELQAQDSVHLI
T2 sequence (looked up) 3: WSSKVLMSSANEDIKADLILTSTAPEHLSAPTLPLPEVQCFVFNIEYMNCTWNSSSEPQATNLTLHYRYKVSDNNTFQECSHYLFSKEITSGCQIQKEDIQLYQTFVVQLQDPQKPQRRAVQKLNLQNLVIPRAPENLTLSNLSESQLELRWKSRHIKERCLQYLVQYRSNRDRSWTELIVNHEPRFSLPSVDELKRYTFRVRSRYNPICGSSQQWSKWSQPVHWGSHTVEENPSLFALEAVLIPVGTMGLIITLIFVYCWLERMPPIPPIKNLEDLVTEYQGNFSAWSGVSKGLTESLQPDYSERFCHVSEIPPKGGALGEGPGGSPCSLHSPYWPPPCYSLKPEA

Relative Activity High aff/Inter Aff (high affinity part) [1]: 1
Selectivity for High Affinity Receptor [1]: 1
Relative Activity High aff/Inter Aff (intermediate affinity part) [2]: 1
Molecule: ch14.18-IL2-H heavy chain fusion (H-fusion with a chimeric 14.18)

Relative Activity High aff/Inter Aff (intermediate affinity part) [3]: 0.01
TF-1β (Int aff) ED50 [3]: > 0.5 µg/mL
Relative Activity High aff/Inter Aff (high affinity part) [4]: 1
Selectivity for High Affinity Receptor [4]: > 100
B1: 14.18-IL2-L containing SEQ ID NO: 5 (other)
light: EIVMTQSPATLSVSPGERATLSCRSSQSLVHRNGNTYLHWYLQKPGQSPKLLIHKVSNRFSGVPDRFSGSGSGTDFTLKISRVEAEDLGVYFCSQSTHVPPLTFGAGTKLELKRTVAAPSVFIFPPSDEQLKSGTASVVCLLNNFYPREAKVQWKVDNALQSGNSQESVTEQDSKDSTYSLSSTLTLSKADYEKHKVYACEVTHQGLSSPVTKSFNRGECAPTSTQLQLEHLLLDLQMILNGINNYKNPKLTRMLTFKFYMPKKATELKHLQCLEEELKPLEEVLNLAQSKNFHLRPRDLISNINVIVLELKGSETTFMCEYADETATIVEFLNRWITFCQSIISTLT
VH: EVQLLQSGPELEKPGASVMISCKASGSSFTGYNMNWVRQNIGKSLEWIGAIDPYYGGTSYNQKFKGRATLTVDKSSSTAYMHLKSLTSEDSAVYYCVSGMEYWGQGTSVTVSS

Relative Activity High aff/Inter Aff (intermediate affinity part) [3]: 0.01
TF-1β (Int aff) ED50 [3]: > 0.5 µg/mL
Relative Activity High aff/Inter Aff (high affinity part) [4]: 1
Selectivity for High Affinity Receptor [4]: > 100
B2: 14.18-IL2-L containing SEQ ID NO: 6 (other)
light: IVMTQSPATLSVSPGERATLSCRSSQSLVHRNGNTYLHWYLQKPGQSPKLLIHKVSNRFSGVPDRFSGSGSGTDFTLKISRVEAEDLGVYFCSQSTHVPPLTFGAGTKLELKRTVAAPSVFIFPPSDEQLKSGTASVVCLLNNFYPREAKVQWKVDNALQSGNSQESVTEQDSKDSTYSLSSTLTLSKADYEKHKVYACEVTHQGLSSPVTKSFNRGECTQLQLEHLLLDLQMILNGINNYKNPKLTRMLTFKFYMPKKATELKHLQCLEEELKPLEEVLNLAQSKNFHLRPRDLISNINVIVLELKGSETTFMCEYADETATIVEFLNRWITFCQSIISTLT
VH: B1 VH
